Assay results as given in IntAct's records for PubMed 17589525.

B1: Splicing factor 45 (Homo sapiens), Q96I25 (parent)
chain: MSLYDDLGVETSDSKTEGWSKNFKLLQSQLQVKKAALTQAKSQRTKQSTVLAPVIDLKRGGSSDDRQIVDTPPHVAAGLKDPVPSGFSAGEVLIPLADEYDPMFPNDYEKVVKRQREERQRQRELERQKEIEEREKRRKDRHEASGFARRPDPDSDEDEDYERERRKRSMGGAAIAPPTSLVEKDKELPRDFPYEEDSRPRSQSSKAAIPPPVYEEQDRPRSPTGPSNSFLANMGGTVAHKIMQKYGFREGQGLGKHEQGLSTALSVEKTSKRGGKIIVGDATEKDASKKSDSNPLTEILKCPTKVVLLRNMVGAGEVDEDLEVETKEECEKYGKVGKCVIFEIPGAPDDEAVRIFLEFERVESAIKAVVDLNGRYFGGRVVKACFYNLDKFRVLDLAEQV
B2: Splicing factor 45 (Homo sapiens), Q96I25 (parent)
chain: B1 chain
partner: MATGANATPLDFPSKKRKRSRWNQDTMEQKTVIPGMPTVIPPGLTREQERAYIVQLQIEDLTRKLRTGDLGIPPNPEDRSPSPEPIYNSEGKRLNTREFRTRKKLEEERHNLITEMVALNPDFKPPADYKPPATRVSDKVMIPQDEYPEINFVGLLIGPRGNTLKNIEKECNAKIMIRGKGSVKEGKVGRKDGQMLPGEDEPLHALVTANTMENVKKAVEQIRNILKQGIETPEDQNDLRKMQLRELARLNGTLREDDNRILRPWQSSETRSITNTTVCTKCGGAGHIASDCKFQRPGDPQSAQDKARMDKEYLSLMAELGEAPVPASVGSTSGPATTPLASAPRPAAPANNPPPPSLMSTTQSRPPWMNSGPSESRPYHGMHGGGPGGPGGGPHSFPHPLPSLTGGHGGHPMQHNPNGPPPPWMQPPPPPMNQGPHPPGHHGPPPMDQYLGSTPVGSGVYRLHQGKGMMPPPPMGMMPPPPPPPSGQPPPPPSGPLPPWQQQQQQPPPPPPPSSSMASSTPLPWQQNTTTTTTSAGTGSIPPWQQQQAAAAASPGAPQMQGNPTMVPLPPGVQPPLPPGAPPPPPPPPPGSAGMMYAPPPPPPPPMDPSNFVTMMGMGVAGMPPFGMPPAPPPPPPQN

Variants of: B1
Details: with SF3B1, O75533-1
SF3B1, O75533-1, sequence (O75533 whole entry): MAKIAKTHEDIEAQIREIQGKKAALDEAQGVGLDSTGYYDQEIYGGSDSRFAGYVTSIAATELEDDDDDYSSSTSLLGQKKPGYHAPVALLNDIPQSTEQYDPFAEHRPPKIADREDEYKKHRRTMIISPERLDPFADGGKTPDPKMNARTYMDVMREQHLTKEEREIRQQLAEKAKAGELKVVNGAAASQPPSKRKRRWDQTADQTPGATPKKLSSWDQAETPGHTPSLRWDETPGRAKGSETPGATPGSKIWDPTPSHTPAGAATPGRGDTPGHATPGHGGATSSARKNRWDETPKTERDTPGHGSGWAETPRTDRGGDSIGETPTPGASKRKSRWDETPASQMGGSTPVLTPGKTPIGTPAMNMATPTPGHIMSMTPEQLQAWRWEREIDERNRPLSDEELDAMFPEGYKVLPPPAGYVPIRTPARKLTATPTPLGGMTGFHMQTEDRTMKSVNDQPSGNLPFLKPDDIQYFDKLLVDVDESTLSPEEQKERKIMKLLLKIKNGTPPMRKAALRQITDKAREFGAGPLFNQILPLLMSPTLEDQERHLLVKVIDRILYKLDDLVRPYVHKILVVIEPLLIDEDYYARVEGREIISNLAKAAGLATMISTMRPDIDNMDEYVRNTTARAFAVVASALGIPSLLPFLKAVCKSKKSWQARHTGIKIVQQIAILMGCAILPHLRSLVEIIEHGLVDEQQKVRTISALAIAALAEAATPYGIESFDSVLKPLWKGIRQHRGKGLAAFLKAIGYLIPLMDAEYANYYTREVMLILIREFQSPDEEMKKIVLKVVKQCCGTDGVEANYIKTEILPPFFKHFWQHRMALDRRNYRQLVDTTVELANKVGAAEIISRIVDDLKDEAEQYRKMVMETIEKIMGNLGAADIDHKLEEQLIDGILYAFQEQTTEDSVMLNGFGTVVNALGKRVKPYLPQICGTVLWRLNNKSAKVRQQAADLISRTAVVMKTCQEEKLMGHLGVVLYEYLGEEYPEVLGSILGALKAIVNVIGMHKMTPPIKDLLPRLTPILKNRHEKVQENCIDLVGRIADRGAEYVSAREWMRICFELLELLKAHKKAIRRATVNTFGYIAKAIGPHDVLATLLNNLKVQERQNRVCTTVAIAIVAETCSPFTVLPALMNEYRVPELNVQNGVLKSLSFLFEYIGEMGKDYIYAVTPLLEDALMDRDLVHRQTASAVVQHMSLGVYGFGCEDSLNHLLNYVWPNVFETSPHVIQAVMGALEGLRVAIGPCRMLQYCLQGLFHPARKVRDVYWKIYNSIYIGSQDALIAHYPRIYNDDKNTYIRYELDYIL

| effect of a mutation on the interaction | Variant |
| --- | --- |
| decreasing interaction | E329Q |
| disrupting interaction | F377A |
| disrupting interaction strength | D319A;E320A;D321A |
| disrupting interaction | Y376A |
| disrupting interaction | R375A |
| disrupting interaction | D319K |

Variants of: B1
Details: with U2AF2, P26368
U2AF2, P26368, sequence (P26368 whole entry): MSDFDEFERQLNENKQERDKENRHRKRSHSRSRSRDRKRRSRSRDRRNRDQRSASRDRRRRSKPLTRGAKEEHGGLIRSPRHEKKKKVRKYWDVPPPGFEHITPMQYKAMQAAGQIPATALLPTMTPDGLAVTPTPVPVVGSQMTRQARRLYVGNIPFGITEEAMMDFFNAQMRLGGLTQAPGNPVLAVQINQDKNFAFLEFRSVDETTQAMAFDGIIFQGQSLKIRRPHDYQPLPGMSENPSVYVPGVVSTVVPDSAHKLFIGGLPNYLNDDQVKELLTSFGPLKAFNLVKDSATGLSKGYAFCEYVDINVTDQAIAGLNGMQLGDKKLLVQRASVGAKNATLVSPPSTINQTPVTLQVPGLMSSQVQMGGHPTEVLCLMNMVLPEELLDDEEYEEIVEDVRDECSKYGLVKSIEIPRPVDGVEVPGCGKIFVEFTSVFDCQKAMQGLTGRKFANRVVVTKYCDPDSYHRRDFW

| effect of a mutation on the interaction | Variant |
| --- | --- |
| disrupting interaction | E329Q |
| decreasing interaction | F377A |
| disrupting interaction strength | D319A;E320A;D321A |
| disrupting interaction | R375A |
| disrupting interaction | R375D |
| disrupting interaction | D319K |

Variants of: B2
Details: with sf01_human SF1, Q15637

| effect of a mutation on the interaction | Variant |
| --- | --- |
| disrupting interaction | D319A |
| disrupting interaction | D319K |
| disrupting interaction | R375D |
| decreasing interaction | R375A |
| decreasing interaction | Y376A |
| decreasing interaction | F377A |
| decreasing interaction | F377Y |
